The text below walks through data of publication PMC3740443, “A Novel Function for the Conserved Glutamate Residue in the Walker B Motif of Replication Factor C”.

The target in data set [1] is AF488-labeled PCNA (UniProt P15873).
Data set [2] has the same target. This is another data set of the same source.
Data set [3] has as its target MDCC labeled PCNA (UniProt P15873). Put plainly: other fluorescence titration; fluorescence intensity of 10 nM PCNA-MDCC at 470 nm, increasing RFC, 0.5 mM ATPγS in place of ATP; assay buffer; equilibrium, quadratic fit.
Data set [4] deals with AF488-labeled PCNA (UniProt P15873). Put plainly: other fluorescence titration; PCNA opening (unquenching) assay: fluorescence of 10 nM PCNA-AF488_2 at 517 nm, increasing RFC, 0.5 mM ATP; assay buffer; equilibrium, quadratic fit.
For data set [5] the target is unchanged. Put plainly: other fluorescence titration; PCNA opening (unquenching) assay: fluorescence of 10 nM PCNA-AF488_2 at 517 nm, increasing RFC, 0.5 mM ATPγS in place of ATP; assay buffer; equilibrium, quadratic fit.
The target of data set [6] is MDCC labeled PCNA (UniProt P15873). Put plainly: other fluorescence titration; fluorescence intensity of 10 nM PCNA-MDCC at 470 nm, increasing RFC, 0.5 mM ATP; assay buffer 30 mM HEPES-NaOH pH 7.5, 150 mM NaCl, 10 mM MgCl2, 0.5 mM EDTA, 2 mM DTT, 2% glycerol; equilibrium, quadratic fit.
Data set [7] concerns the target PCNA (Saccharomyces cerevisiae) (UniProt P15873). Put plainly: surface plasmon resonance. Conditions: cited from earlier work.
In data set [8] the target is RFC clamp loader (WT; Rfc1 N-terminal truncation) (Saccharomyces cerevisiae, UniProt P38630;P40348;P38629;P40339;P38251 284-861;1-353;1-340;1-323;1-354). Put plainly: fluorescence anisotropy; 0.5 mM ATPgS; no PCNA; 20 nM p/t DNA-RhX, 0.5 mM ATPgS, varied RFC, with or without 2 uM PCNA; buffer, salt, pH and temperature not in the material (Section 3.1 text missing). Conditions: protein: recombinant; tags: Rfc1 N-terminal 6xHis and kinase recognition motif replacing residues 1-283; copies: 1;1;1;1;1; label: X-rhodamine (RhX) on 5' end of template; primer-template: 26 bp duplex with 34 nt 5' template overhang.

For data set [9], the target named is RFC WB-EQ (Walker B Glu to Gln quadruple mutant) (Saccharomyces cerevisiae, UniProt P38630;P40348;P38629;P40339;P38251 284-861;1-353;1-340;1-323;1-354, E425Q;E141Q;E118Q;E115Q). Described as above. Conditions: protein: recombinant; tags: Rfc1 N-terminal 6xHis and kinase recognition motif replacing residues 1-283; copies: 1;1;1;1;1; label: X-rhodamine (RhX) on 5' end of template; primer-template: 26 bp duplex with 34 nt 5' template overhang.

The target in data set [10] is RFC WB-EA (Walker B Glu to Ala quadruple mutant) (Saccharomyces cerevisiae, UniProt P38630;P40348;P38629;P40339;P38251 284-861;1-353;1-340;1-323;1-354, E425A;E141A;E118A;E115A). The description is as above. Conditions: protein: recombinant; tags: Rfc1 N-terminal 6xHis and kinase recognition motif replacing residues 1-283; copies: 1;1;1;1;1; label: X-rhodamine (RhX) on 5' end of template; primer-template: 26 bp duplex with 34 nt 5' template overhang.

Data set [11] has as its target RFC clamp loader (WT; Rfc1 N-terminal truncation);PCNA (Saccharomyces cerevisiae;Saccharomyces …, UniProt P38630;P40348;P38629;P40339;P38251;P15873 284-861;1-353;1-340;1-323;1-354;1-258, |). Put plainly: fluorescence anisotropy; 0.5 mM ATPgS; 2 uM PCNA; 20 nM p/t DNA-RhX, 0.5 mM ATPgS, varied RFC, with or without 2 uM PCNA; buffer, salt, pH and temperature not in the material (Section 3.1 text missing). Conditions: protein: recombinant;recombinant; tags: Rfc1 N-terminal 6xHis and kinase recognition motif replacing residues 1-283;; copies: 1;1;1;1;1;3; label: X-rhodamine (RhX) on 5' end of template; primer-template: 26 bp duplex with 34 nt 5' template overhang.

For data set [12], the target named is RFC WB-EQ (Walker B Glu to Gln quadruple mutant);PCNA (Saccharomyces cerevisiae;Saccharomyces …, UniProt P38630;P40348;P38629;P40339;P38251;P15873 284-861;1-353;1-340;1-323;1-354;1-258, E425Q;E141Q;E118Q;E115Q|). Described as above. To be noted: protein: recombinant;recombinant; tags: Rfc1 N-terminal 6xHis and kinase recognition motif replacing residues 1-283;; copies: 1;1;1;1;1;3; label: X-rhodamine (RhX) on 5' end of template; primer-template: 26 bp duplex with 34 nt 5' template overhang.

For data set [13], the target named is RFC WB-EA (Walker B Glu to Ala quadruple mutant);PCNA (Saccharomyces cerevisiae;Saccharomyces …, UniProt P38630;P40348;P38629;P40339;P38251;P15873 284-861;1-353;1-340;1-323;1-354;1-258, E425A;E141A;E118A;E115A|). Described as above. To be noted: protein: recombinant;recombinant; tags: Rfc1 N-terminal 6xHis and kinase recognition motif replacing residues 1-283;; copies: 1;1;1;1;1;3; label: X-rhodamine (RhX) on 5' end of template; primer-template: 26 bp duplex with 34 nt 5' template overhang.

PCNA (Saccharomyces cerevisiae), sequence (P15873 whole entry, the tested form may be a part): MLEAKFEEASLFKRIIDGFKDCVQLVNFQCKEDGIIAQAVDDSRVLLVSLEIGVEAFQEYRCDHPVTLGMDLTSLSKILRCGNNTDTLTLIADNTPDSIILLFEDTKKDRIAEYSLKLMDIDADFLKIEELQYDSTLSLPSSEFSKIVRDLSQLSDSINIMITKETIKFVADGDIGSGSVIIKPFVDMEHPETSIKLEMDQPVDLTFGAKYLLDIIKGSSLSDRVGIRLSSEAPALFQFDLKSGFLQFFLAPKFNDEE

In the data set with AF488-labeled PCNA [1], “wild-type replication factor C (RFC) complex, Rfc1 lacking its first 283 residues (from UniProt P38630 284-861; P40348 1-353; P38629 1-340; P40339 1-323; P38251 1-354)” displayed a PCNA opening: increase of AF488 fluorescence of 10 nM PCNA-AF488 2 at saturating RFC, 0.5 mM ATP of 2 fold. The molecule also gave a PCNA opening: increase of AF488 fluorescence of 10 nM PCNA-AF488 2 at saturating RFC, 0.5 mM ATPγS with AF488-labeled PCNA [2] of 1.5 fold. Also, the Kd with MDCC labeled PCNA [3] worked out at 13 nM; in the data set with AF488-labeled PCNA [4] it was 11 nM; with AF488-labeled PCNA [5], 5.8 nM; with MDCC labeled PCNA [6] it was 7.1 nM.

For the molecule “Replication factor C (from UniProt P38630)”, the Kd in data set [7] was 1.3 nM.

B1: p/t DNA-RhX (26/60-mer primed template) (dsDNA)
DNA 1: TTCAGGTCAGAAGGGTTCTATCTCTGTTGGCCAGAATGTCCCTTTTATTACTGGTCGTGT
DNA 2: ACACGACCAGTAATAAAAGGGACATT
modifications: 5' C6 amino linker on the 60-mer template
For B1, the Kd in [8] came to 91 ± 28 nM; in [9], 690 ± 400 nM; in data set [10], 1060 ± 200 nM; in data set [11], 37 ± 13 nM; in [12], 460 ± 200 nM; in data set [13], 1800 ± 700 nM.
